{
  "source": "patent US20190359697A1",
  "about": "(Scripps Research, published 2019)",
  "binders": {"B1": {"name": "hFMCL2b-LCNT/hFMCH4c (Fab, V domains shown)", "VH": "QVQLQESGPGLVKPSETLSVTCTVSGVSLPDYGVSWIRQPPGKGLEWLGVIWGSETTYYNSALKSRLTISKDNSKNQVSLKMSSLTAADTAVYYCAKHYYYGGSYAMDYWGQGTLVTVSS", "VL": "DIQMTQSPSSLSASVGDRVTITCRASQDISKYLNWYQQKPGKAVKLLIYHTSRLHSGVPSRFSGSGSGTDYTLTISSLQPEDFATYFCQQGATLPYTFGQGTKLEIK"}, "B2": {"name": "hFMCL2c-LCNT/hFMCH4b (Fab, V domains shown)", "VH": "B1 VH with S61P, A62S", "VL": "B1 VL"}, "B3": {"name": "hFMCL2/H4b WT (antibody, V domains shown)", "VH": "B1 VH with S61P, A62S", "VL": "B1 VL with V44P, F87Y"}, "B4": {"name": "hFMCL2/H4a WT (antibody, V domains shown)", "VH": "B1 VH with S61P, A62S, N73T", "VL": "B1 VL with V44P, F87Y"}, "B5": {"name": "hFMCL2b-LCNT/hFMCH4b (Fab, V domains shown)", "VH": "B1 VH with S61P, A62S", "VL": "B1 VL"}, "B6": {"name": "hFMCL2a-LCNT/hFMCH4c (Fab, V domains shown)", "VH": "B1 VH", "VL": "B1 VL with F87Y"}, "B7": {"name": "hFMCL2/H4b wt (antibody, V domains shown)", "VH": "B1 VH with S61P, A62S", "VL": "B1 VL with V44P, F87Y"}, "B8": {"name": "hFMCL2/H4z (antibody, V domains shown)", "VH": "B1 VH with A62S", "VL": "B1 VL with V44P, F87Y"}, "B9": {"name": "hFMCL2a-LCNT/hFMCH4b (Fab, V domains shown)", "VH": "B1 VH with S61P, A62S", "VL": "B1 VL with F87Y"}},
  "key": {"[1]": {"biological_target": "T1, CD19 (UniProt P15391 20-556)", "T1 chain": "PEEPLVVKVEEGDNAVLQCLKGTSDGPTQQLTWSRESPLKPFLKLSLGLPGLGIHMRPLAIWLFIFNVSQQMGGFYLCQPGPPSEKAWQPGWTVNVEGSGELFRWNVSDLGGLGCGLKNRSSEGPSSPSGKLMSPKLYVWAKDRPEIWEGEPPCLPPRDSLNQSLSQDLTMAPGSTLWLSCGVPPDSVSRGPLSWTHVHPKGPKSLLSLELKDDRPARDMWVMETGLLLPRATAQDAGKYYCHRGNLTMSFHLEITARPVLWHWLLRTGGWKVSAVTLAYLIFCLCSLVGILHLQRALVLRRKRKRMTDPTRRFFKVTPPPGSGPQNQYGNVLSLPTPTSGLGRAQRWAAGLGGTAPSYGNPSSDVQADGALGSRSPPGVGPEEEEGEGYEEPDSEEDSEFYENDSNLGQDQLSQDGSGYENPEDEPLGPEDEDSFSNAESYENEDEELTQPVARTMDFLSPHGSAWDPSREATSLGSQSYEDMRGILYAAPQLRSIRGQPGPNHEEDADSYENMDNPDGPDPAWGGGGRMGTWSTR", "experiment": "flow cytometry cell binding; FIG. 8"}, "[2]": {"biological_target": "T1, CD19", "experiment": "flow cytometry cell binding; FIG. 6"}, "[3]": {"biological_target": "CD19 (UniProt P15391)", "experiment": "cell-based or functional assay"}, "[4]": {"biological_target": "T2, CD19 (UniProt P15391 20-556, limits assumed)", "T2 sequence (looked up)": "T1 chain", "experiment": "cell-based or functional assay"}, "[5]": {"biological_target": "T1, CD19", "experiment": "flow cytometry cell binding; FIG. 7"}, "[6]": {"biological_target": "T1, CD19", "experiment": "flow cytometry cell binding; FIG. 5; WT switch (no PNE)"}},
  "note": "Substitutions are numbered along the chain they refer to.",
  "data": [
    {"binder": "B1", "values": [
      {"measurement": "EC50", "setting": "[1]", "result": 1590, "unit": "pM"},
      {"measurement": "EC50", "setting": "[2]", "result": 1260, "unit": "pM"},
      {"measurement": "EC50 of cytotoxicity (LDH), sCAR-T cells + switch vs CD19+ RS4;11, Average of the repeat assays", "setting": "[3]", "result": 10.2, "unit": "pM"},
      {"measurement": "EC50 of cytotoxicity (LDH), sCAR-T cells + switch vs CD19+ RS4;11, assay DTR-5-15 (PBMC)", "setting": "[3]", "result": 8.41, "unit": "pM"},
      {"measurement": "EC50 of cytotoxicity (LDH), sCAR-T cells + switch vs CD19+ RS4;11, assay DTR-5-16 (CD4:CD8)", "setting": "[3]", "result": 8.47, "unit": "pM"},
      {"measurement": "EC50 of cytotoxicity (LDH), sCAR-T cells + switch vs CD19+ RS4;11, assay DTR-5-50 (PBMC)", "setting": "[3]", "result": 7.54, "unit": "pM"},
      {"measurement": "EC50 of cytotoxicity (LDH), sCAR-T cells + switch vs CD19+ RS4;11, assay DTR-5-51 (CD4:CD8)", "setting": "[3]", "result": 16.5, "unit": "pM"},
      {"measurement": "EC50 of cytotoxicity (LDH), sCAR-T cells + switch vs CD19+ RS4;11, Average of the repeat assays", "setting": "[4]", "result": 4.6, "unit": "pM"},
      {"measurement": "EC50 of cytotoxicity (LDH), sCAR-T cells + switch vs CD19+ RS4;11, assay DTR-5-15 (PBMC)", "setting": "[4]", "result": 4.57, "unit": "pM"},
      {"measurement": "EC50 of cytotoxicity (LDH), sCAR-T cells + switch vs CD19+ RS4;11, assay DTR-5-16 (CD4:CD8)", "setting": "[4]", "result": 4.61, "unit": "pM"},
      {"measurement": "EC50 of cytotoxicity (LDH), sCAR-T cells + switch vs CD19+ RS4;11, assay DTR-5-50 (PBMC)", "setting": "[4]", "result": 3.78, "unit": "pM"},
      {"measurement": "EC50 of cytotoxicity (LDH), sCAR-T cells + switch vs CD19+ RS4;11, assay DTR-5-51 (CD4:CD8)", "setting": "[4]", "result": 5.45, "unit": "pM"}
    ]},
    {"binder": "B2", "values": [
      {"measurement": "EC50", "setting": "[2]", "result": 1380, "unit": "pM"},
      {"measurement": "EC50 of cytotoxicity (LDH), sCAR-T cells + switch vs CD19+ RS4;11, Average of the repeat assays", "setting": "[4]", "result": 5.18, "unit": "pM"},
      {"measurement": "EC50 of cytotoxicity (LDH), sCAR-T cells + switch vs CD19+ RS4;11, assay DTR-5-15 (PBMC)", "setting": "[4]", "result": 4.04, "unit": "pM"},
      {"measurement": "EC50 of cytotoxicity (LDH), sCAR-T cells + switch vs CD19+ RS4;11, assay DTR-5-16 (CD4:CD8)", "setting": "[4]", "result": 3.25, "unit": "pM"},
      {"measurement": "EC50 of cytotoxicity (LDH), sCAR-T cells + switch vs CD19+ RS4;11, assay DTR-5-50 (PBMC)", "setting": "[4]", "result": 3.78, "unit": "pM"},
      {"measurement": "EC50 of cytotoxicity (LDH), sCAR-T cells + switch vs CD19+ RS4;11, assay DTR-5-51 (CD4:CD8)", "setting": "[4]", "result": 9.65, "unit": "pM"},
      {"measurement": "EC50", "setting": "[5]", "result": 1680, "unit": "pM"}
    ]},
    {"binder": "B3", "values": [
      {"measurement": "EC50", "setting": "[6]", "result": 4130, "unit": "pM"},
      {"measurement": "EC50", "setting": "[5]", "result": 5380, "unit": "pM"}
    ]},
    {"binder": "B4", "values": [
      {"measurement": "EC50", "setting": "[6]", "result": 6650, "unit": "pM"},
      {"measurement": "EC50 of cytotoxicity (LDH), sCAR-T cells + switch vs CD19+ RS4;11, Average of the repeat assays", "setting": "[4]", "result": 40.7, "unit": "pM"},
      {"measurement": "EC50 of cytotoxicity (LDH), sCAR-T cells + switch vs CD19+ RS4;11, assay DTR-5-15 (PBMC)", "setting": "[4]", "result": 43.2, "unit": "pM"},
      {"measurement": "EC50 of cytotoxicity (LDH), sCAR-T cells + switch vs CD19+ RS4;11, assay DTR-5-16 (CD4:CD8)", "setting": "[4]", "result": 50.7, "unit": "pM"},
      {"measurement": "EC50 of cytotoxicity (LDH), sCAR-T cells + switch vs CD19+ RS4;11, assay DTR-5-50 (PBMC)", "setting": "[4]", "result": 28.3, "unit": "pM"},
      {"measurement": "EC50 of cytotoxicity (LDH), sCAR-T cells + switch vs CD19+ RS4;11, assay DTR-5-51 (CD4:CD8)", "setting": "[4]", "result": 40.7, "unit": "pM"}
    ]},
    {"binder": "B5", "values": [
      {"measurement": "EC50", "setting": "[2]", "result": 1220, "unit": "pM"},
      {"measurement": "EC50 of cytotoxicity (LDH), sCAR-T cells + switch vs CD19+ RS4;11, Average of the repeat assays", "setting": "[4]", "result": 6.21, "unit": "pM"},
      {"measurement": "EC50 of cytotoxicity (LDH), sCAR-T cells + switch vs CD19+ RS4;11, assay DTR-5-15 (PBMC)", "setting": "[4]", "result": 5.17, "unit": "pM"},
      {"measurement": "EC50 of cytotoxicity (LDH), sCAR-T cells + switch vs CD19+ RS4;11, assay DTR-5-16 (CD4:CD8)", "setting": "[4]", "result": 5.78, "unit": "pM"},
      {"measurement": "EC50 of cytotoxicity (LDH), sCAR-T cells + switch vs CD19+ RS4;11, assay DTR-5-50 (PBMC)", "setting": "[4]", "result": 3.93, "unit": "pM"},
      {"measurement": "EC50 of cytotoxicity (LDH), sCAR-T cells + switch vs CD19+ RS4;11, assay DTR-5-51 (CD4:CD8)", "setting": "[4]", "result": 9.96, "unit": "pM"},
      {"measurement": "EC50", "setting": "[5]", "result": 2270, "unit": "pM"}
    ]},
    {"binder": "B6", "values": [
      {"measurement": "EC50", "setting": "[1]", "result": 1810, "unit": "pM"},
      {"measurement": "EC50", "setting": "[2]", "result": 1700, "unit": "pM"},
      {"measurement": "EC50 of cytotoxicity (LDH), sCAR-T cells + switch vs CD19+ RS4;11, Average of the repeat assays", "setting": "[4]", "result": 9.5, "unit": "pM"},
      {"measurement": "EC50 of cytotoxicity (LDH), sCAR-T cells + switch vs CD19+ RS4;11, assay DTR-5-15 (PBMC)", "setting": "[4]", "result": 4.43, "unit": "pM"},
      {"measurement": "EC50 of cytotoxicity (LDH), sCAR-T cells + switch vs CD19+ RS4;11, assay DTR-5-16 (CD4:CD8)", "setting": "[4]", "result": 9.32, "unit": "pM"},
      {"measurement": "EC50 of cytotoxicity (LDH), sCAR-T cells + switch vs CD19+ RS4;11, assay DTR-5-50 (PBMC)", "setting": "[4]", "result": 7.05, "unit": "pM"},
      {"measurement": "EC50 of cytotoxicity (LDH), sCAR-T cells + switch vs CD19+ RS4;11, assay DTR-5-51 (CD4:CD8)", "setting": "[4]", "result": 17.2, "unit": "pM"}
    ]},
    {"binder": "B7", "values": [
      {"measurement": "EC50", "setting": "[1]", "result": 3840, "unit": "pM"}
    ]},
    {"binder": "B8", "values": [
      {"measurement": "EC50", "setting": "[1]", "result": 13100, "unit": "pM"},
      {"measurement": "EC50", "setting": "[2]", "result": 12400, "unit": "pM"}
    ]},
    {"binder": "B9", "values": [
      {"measurement": "EC50", "setting": "[2]", "result": 1610, "unit": "pM"},
      {"measurement": "EC50 of cytotoxicity (LDH), sCAR-T cells + switch vs CD19+ RS4;11, Average of the repeat assays", "setting": "[4]", "result": 6.8, "unit": "pM"},
      {"measurement": "EC50 of cytotoxicity (LDH), sCAR-T cells + switch vs CD19+ RS4;11, assay DTR-5-15 (PBMC)", "setting": "[4]", "result": 10.4, "unit": "pM"},
      {"measurement": "EC50 of cytotoxicity (LDH), sCAR-T cells + switch vs CD19+ RS4;11, assay DTR-5-16 (CD4:CD8)", "setting": "[4]", "result": 6.03, "unit": "pM"},
      {"measurement": "EC50 of cytotoxicity (LDH), sCAR-T cells + switch vs CD19+ RS4;11, assay DTR-5-50 (PBMC)", "setting": "[4]", "result": 5.29, "unit": "pM"},
      {"measurement": "EC50 of cytotoxicity (LDH), sCAR-T cells + switch vs CD19+ RS4;11, assay DTR-5-51 (CD4:CD8)", "setting": "[4]", "result": 5.45, "unit": "pM"},
      {"measurement": "EC50", "setting": "[5]", "result": 2430, "unit": "pM"}
    ]}
  ]
}
